One block for each binder: values may come before it. Non-standard residues stand in square brackets, D forms with d. No end group written: not given here. pY = N[C@@H](Cc1ccc(OP(=O)(O)O)cc1)C(=O)O
What was measured:
Talin F3 W359A [1] = target: T1, Talin F3 W359A (mouse, UniProt P26039 309-405, limits assumed); assay: ITC
T1 construct: domain: F3 sub-domain; As m1, with the mutation; also called talin (W359A) mutant
Experimental: (§1) Peptide concentrations were typically at 150 to 300 μM while protein concentrations ranged from 25 to 50 μM. For the W359A mutant, the protein concentration was 50 μM and the peptide concentration was 1 mM. Prior to ITC titrations, the peptides and proteins were in buffer consisting of 200 mM Tris, 300 mM NaCl, pH 7.5. All experiments were conducted at 23 degrees Celsius. […] The bottom panel is the binding curve, calculated using the software program Origin.
(§2) Isothermal titration calorimetry (ITC) was performed on a VP-ITC calorimeter (Microcal, Northampton, Mass.). Aliquots (8 μL) of wildtype ([…]p[…]) (SEQ ID NO: 2) or mutant chimeric peptide were injected into the cell containing wildtype or mutant talin F3 domain. Peptide concentrations were typically 150 to 300 μM while protein concentrations ranged from 25 to 50 μM. For the W359A mutant, the protein concentration was 50 μM and the peptide concentration was 1 mM. Prior to ITC titrations, the peptides and proteins were in 200 mM Tris, 300 mM NaCl, pH 7.5. In each experiment 37 injections were made. The experiments were performed at 23° C. All titrations were performed at least twice and with different protein preparations. Experimental data were analyzed using Microcal Origin software.

[2] = target: T2, Talin F3 sub-domain, wild type (mouse, UniProt P26039 309-405, limits assumed); assay: ITC, peptide injected into talin F3, 23 C, 200 mM Tris, 300 mM NaCl, pH 7.5
T2 construct: domain: F3 sub-domain; U-15N labelled for NMR; also called Talin F3 wt; talin F3 domain
T2 sequence (P26039 309-405 limits assumed): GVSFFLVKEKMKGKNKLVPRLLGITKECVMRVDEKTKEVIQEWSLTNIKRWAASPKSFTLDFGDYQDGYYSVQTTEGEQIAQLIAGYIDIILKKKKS
Experimental: as §1, §2

Talin F3 L325R = target: T3, Talin F3 L325R (mouse, UniProt P26039 309-405, limits assumed); assay: ITC, peptide injected into talin F3 L325R, 23 C, 200 mM Tris, 300 mM NaCl, pH 7.5
T3 construct: domain: F3 sub-domain; As m1, with the mutation
T3 sequence (P26039 309-405 L325R limits assumed): as the sequence (P26039 309-405 limits assumed) above, with L17R counted along it
Experimental: as §1, §2

Talin F3 Q381V = target: T4, Talin F3 Q381V (mouse, UniProt P26039 309-405, limits assumed); assay: ITC, peptide injected into talin F3 Q381V, 23 C, 200 mM Tris, 300 mM NaCl, pH 7.5
T4 construct: domain: F3 sub-domain; As m1, with the mutation
T4 sequence (P26039 309-405 Q381V limits assumed): as the sequence (P26039 309-405 limits assumed) above, with Q73V counted along it
Experimental: as §1, §2

Talin F3 W359A [3] = target: T1, Talin F3 W359A; assay: ITC, 1 mM peptide injected into 50 µM talin F3 W359A, 23 C, 200 mM Tris, 300 mM NaCl, pH 7.5
Experimental: as §1, §2

T1 sequence (P26039 309-405 W359A limits assumed): as the sequence (P26039 309-405 limits assumed) above, with W51A counted along it

- fold reduction of affinity against wild-type talin F3 (Talin F3 W359A [1]): ~1000 fold
- Kd [2]: 140 nM
- Kd (Talin F3 L325R): 212 nM
- Kd (Talin F3 Q381V): 135 nM
- Kd (Talin F3 W359A [3]): 106000 nM
B1: β3/PIPKIγ chimeric peptide, wild type (peptide)
peptide: KKLLITIHDRKEFAKFEEERARAKWV[pY]SPLHYSAR
notes: Integrin β3 tail residues N-terminal of W739, PIPKIγ residues C-terminal of it (numbered 740-746 in the deposited structure); also called β3 chimera; β3-integrin/PIPKIγ peptide

- Kd [2]: 105 nM
Binder: KKLLITIHDRKEFAKAEEERARAKWV[pY]SPLHYSAR (also called β3 chimera F730A; β3-F730A) [β3/PIPKIγ chimeric peptide F730A]

- Kd [2]: 118 nM
Binder: KKLLITIHDRKEAAKFEEERARAKWV[pY]SPLHYSAR (also called β3 chimera F727A; β3-F727A) [β3/PIPKIγ chimeric peptide F727A]
